Data: article PMC6458996, “Sostdc1: A soluble BMP and Wnt antagonist that is induced by the interaction between myeloma cells and osteoblast lineage cells” (Bone, 2019)
Each block holds one molecule with its values, some of them ahead of it.

Key:
[1] = biological target: recombinant murine low density lipoprotein receptor-related protein 6 (LRP6) (mouse) (UniProt O88572); assay: BLI; Amine reactive 2nd generation (AR2G) biosensors (ForteBio, BLItz); analyte at multiple concentrations from 0 to 100 ug/ml; global fit to a simple 1:1 Langmuir model; which partner was immobilised is not stated outright (the legend speaks of 100 ug/ml of Sostdc1 binding to rmLRP6, BMP2 and BMP7)
[2] = biological target: T1, recombinant murine Sostdc1 (sclerostin domain containing 1) (mouse, UniProt Q9CQN4 24-206); assay: as above; conditions: both partners purified
T1 construct: sclerostin domain containing 1 (Sostdc1), murine recombinant protein; also called recombinant Sostdc1; murine recombinant Sostdc1
T1 sequence (looked up): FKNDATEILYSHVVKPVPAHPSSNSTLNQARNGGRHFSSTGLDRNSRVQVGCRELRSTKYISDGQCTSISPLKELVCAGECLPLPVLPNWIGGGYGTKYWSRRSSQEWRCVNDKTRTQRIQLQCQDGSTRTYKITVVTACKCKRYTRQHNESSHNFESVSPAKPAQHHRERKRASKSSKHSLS

Chain of recombinant murine low density lipoprotein receptor-related protein 6 (LRP6) (mouse) (O88572 20-1613): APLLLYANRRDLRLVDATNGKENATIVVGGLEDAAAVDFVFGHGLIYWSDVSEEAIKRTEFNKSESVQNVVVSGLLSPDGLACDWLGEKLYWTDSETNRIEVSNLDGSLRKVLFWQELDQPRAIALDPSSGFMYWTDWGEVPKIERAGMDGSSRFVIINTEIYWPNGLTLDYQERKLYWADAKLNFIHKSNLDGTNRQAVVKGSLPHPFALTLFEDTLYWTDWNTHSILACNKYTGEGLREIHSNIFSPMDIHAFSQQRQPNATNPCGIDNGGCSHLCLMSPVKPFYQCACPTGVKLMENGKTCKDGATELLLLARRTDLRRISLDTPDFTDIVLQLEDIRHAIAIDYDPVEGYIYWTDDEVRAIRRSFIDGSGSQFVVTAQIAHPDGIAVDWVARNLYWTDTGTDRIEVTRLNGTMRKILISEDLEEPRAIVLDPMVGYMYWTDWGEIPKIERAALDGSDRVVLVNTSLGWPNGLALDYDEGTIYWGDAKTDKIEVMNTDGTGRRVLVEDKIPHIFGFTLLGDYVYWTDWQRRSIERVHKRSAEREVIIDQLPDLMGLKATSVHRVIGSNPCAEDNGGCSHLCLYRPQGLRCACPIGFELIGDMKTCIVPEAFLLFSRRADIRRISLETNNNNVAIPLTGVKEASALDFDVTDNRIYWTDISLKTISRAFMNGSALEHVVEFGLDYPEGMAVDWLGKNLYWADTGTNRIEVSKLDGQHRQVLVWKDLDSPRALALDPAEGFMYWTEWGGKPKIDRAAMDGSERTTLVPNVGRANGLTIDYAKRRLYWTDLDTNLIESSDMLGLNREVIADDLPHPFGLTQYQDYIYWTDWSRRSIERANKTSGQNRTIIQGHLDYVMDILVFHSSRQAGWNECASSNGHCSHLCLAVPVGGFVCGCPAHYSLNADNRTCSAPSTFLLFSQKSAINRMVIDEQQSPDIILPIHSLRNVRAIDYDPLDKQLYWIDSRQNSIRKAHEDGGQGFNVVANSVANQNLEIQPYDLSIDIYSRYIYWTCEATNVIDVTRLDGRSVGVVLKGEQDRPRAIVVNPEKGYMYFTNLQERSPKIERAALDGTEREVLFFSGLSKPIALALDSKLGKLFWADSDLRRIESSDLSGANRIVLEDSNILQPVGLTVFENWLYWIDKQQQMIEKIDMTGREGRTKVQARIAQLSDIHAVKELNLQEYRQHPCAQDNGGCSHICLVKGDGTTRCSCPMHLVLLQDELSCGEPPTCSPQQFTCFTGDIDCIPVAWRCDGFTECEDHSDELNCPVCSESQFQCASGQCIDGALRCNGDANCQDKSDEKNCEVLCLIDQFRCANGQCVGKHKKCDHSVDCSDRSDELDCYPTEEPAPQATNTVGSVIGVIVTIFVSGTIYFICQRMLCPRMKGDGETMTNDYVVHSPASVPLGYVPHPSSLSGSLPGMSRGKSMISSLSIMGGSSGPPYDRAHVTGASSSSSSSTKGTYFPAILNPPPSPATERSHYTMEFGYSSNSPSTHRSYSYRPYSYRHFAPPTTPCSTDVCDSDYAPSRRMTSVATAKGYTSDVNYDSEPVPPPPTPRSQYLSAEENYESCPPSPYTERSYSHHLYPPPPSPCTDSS

Kd [1]: 0.85 nM
Molecule: recombinant murine Sostdc1 (sclerostin domain containing 1) (from UniProt Q9CQN4 24-206) (natural protein)

Kd [2]: < 0.001 nM
B1: bone morphogenetic protein 7 (BMP7) (ligand, UniProt P18075 293-431, looked up)
chain: STGSKQRSQNRSKTPKNQEALRMANVAENSSSDQRQACKKHELYVSFRDLGWQDWIIAPEGYAAYYCEGECAFPLNSYMNATNHAIVQTLVHFINPETVPKPCCAPTQLNAISVLYFDDSSNVILKKYRNMVVRACGCH
notes: BMP7, recombinant protein; also called ligand BMP7 protein

Kd [2]: 9.57 nM
B2: bone morphogenetic protein 2 (BMP2) (ligand, UniProt P12643 283-396, looked up)
chain: QAKHKQRKRLKSSCKRHPLYVDFSDVGWNDWIVAPPGYHAFYCHGECPFPLADHLNSTNHAIVQTLVNSVNSKIPKACCVPTELSAISMLYLDENEKVVLKNYQDMVVEGCGCR
notes: BMP2, recombinant protein; also called BMP2 ligand protein
